Experimental data: US20260209387A1, “SINGLE-DOMAIN ANTIBODY FOR INHIBITION OF NEUTROPHIL ELASTASE ACTIVITY” (UNIVERSITE DE LIEGE, priority 2023, published 2026)

Tests used:
human cathepsin G (hCG) = target: T1, human cathepsin G (hCG) (Homo sapiens, UniProt P08311); assay: BLI binding to other serine proteases: hCG; conditions: 50 nM protease
T1 construct: purchased Calbiochem
T1 sequence (P08311 21-244): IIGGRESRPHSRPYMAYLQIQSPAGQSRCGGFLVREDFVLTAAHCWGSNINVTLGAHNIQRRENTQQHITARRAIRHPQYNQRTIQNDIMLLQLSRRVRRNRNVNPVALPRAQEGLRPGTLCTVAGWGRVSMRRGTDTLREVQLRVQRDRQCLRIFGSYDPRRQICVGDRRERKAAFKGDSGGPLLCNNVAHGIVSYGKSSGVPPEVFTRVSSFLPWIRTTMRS
Description: (§1) The specificity of NbE201 for hNE was also investigated by BLI. Biotinylated NbE201 (10 μg/mL) was immobilized on streptavidin biosensors (SA, Sartorius) following provider's indications. The biosensors were then immersed in a 50 nM solution of a serine protease. The proteases tested were human cathepsin G (hCG), human proteinase 3 (hPR3), mouse pancreatic elastase (mPE), mouse neutrophil elastase (mNE) and porcine pancreatic elastase (pPE). hNE was used a positive control. The association and dissociation were measured for 70 s and 320 s respectively, in kinetic buffer (KB, Sartorius). The experiments were carried out at 30° C. in 384-wells black-bottom microplates in polypropylene (Greiner Bio-One, Belgium) and with orbital agitation (1000 rpm).

[1] = target: T2, porcine pancreatic elastase (pPE) (Sus scrofa, UniProt P00772); assay: BLI binding to other serine proteases: pPE; conditions: 50 nM protease
T2 construct: purchased Sigma
Description: as §1

hNE = target: T3, hNE (Homo sapiens, UniProt P08246); assay: BLI specificity assay, hNE positive control; assay type: binding; conditions: 50 nM protease
T3 construct: purchased Elastin Products Company (EPC)
T3 sequence (P08246 30-247): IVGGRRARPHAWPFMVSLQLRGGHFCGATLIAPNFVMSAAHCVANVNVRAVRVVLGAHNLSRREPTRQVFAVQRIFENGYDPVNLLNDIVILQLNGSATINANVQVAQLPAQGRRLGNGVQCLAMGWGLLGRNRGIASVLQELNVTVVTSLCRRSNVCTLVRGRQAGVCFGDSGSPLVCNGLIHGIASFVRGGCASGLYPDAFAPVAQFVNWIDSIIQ
Description: as §1

[2] = Urea-induced unfolding (intrinsic fluorescence, far UV-CD); assay type: physicochemical; conditions: pH 7, 25° C.
Description: 1.11.1. Preparation of the samples. Samples of NbE201 were incubated overnight at 25° C. in the presence of increasing concentrations of urea (Sigma-Aldrich) in 0.05 M NaP buffer pH 7. The protein concentration was 0.2 mg mL-1. The denaturant concentration in each sample was determined from refractive index measurements (Pace, C. N., 1986, doi.org/10.1016/0076-6879 (86) 31045-0), using a R5000 hand refractometer from Atago (Tokyo, Japan). The same samples were used to measure both the intrinsic fluorescence and far ultraviolet circular dichroism (UV-CD) spectra. Blank samples (without the Nb) every 1 M urea were prepared to make a reference curve that was used to correct the contribution of (buffer+urea) for fluorescence and circular dichroism (CD) signal at each urea concentration.
1.11.2. Measurements of fluorescence and far-UV-CD signals/spectra. Intrinsic fluorescence spectra to monitor changes in the tertiary structure were recorded at 25° C. from 305 nm to 440 nm after excitation at 280 nm with 5 nm excitation and emission slits using a Cary Eclipse Fluorimeter (Agilent, Santa Clara, USA) equipped with a thermostatically controlled multi-cuvette holder and a 10*0.4 mm pathlength quartz micro cuvette. The voltage applied at the detector was 710 V. Data acquisition was made every 0.5 nm with a scan rate of 30 nm·min^−1.
Far UV-CD spectrum of the native and denatured states (i.e. in 9 M urea) were recorded from 190 nm to 260 nm in a 0.2 mm pathlength quartz cuvette at 25° C. […] were recorded with a 0.1 nm data interval, a data pitch of 0.1 nm, 2 s integration time, a bandwidth of 1 nm and a scanning speed of 50 nm/min. The unfolding transitions were monitored by far UV-CD at 207 nm in a 0.2 mm pathlength quartz cuvette. At each denaturant concentration, 37 data points were acquired with a 1 nm bandwidth, a reading frequency of 5 s and a 4 s integration time, and averaged. The measurements were carried out with Jasco J-810 spectropolarimeter, (JASCO, Lisses, France) equipped with a Peltier cell holder.
1.11.3. Data analysis. The intrinsic fluorescence spectra were fitted using a five parameter Weibull function (from software SigmaPlot 5.0) to determine the wavelength corresponding to the highest fluorescence intensity (λmax). The changes in fluorescence intensity at 337 nm were also used to monitor the unfolding transition. The transition curves obtained were analyzed based on a two-state (N ? U) model according to Dumoulin et al. (doi: 10.1110/ps.34602) and equation 1:
where x is the concentration in denaturant and a=(ΔG°NU(H2O)−m*[D])/RT, and yobs is the monitored signal (i.e. λmax, F337 nm or CD207 nm) at a given denaturant concentration, and YN and YU are the values of these signals for the native and denatured states, respectively in the absence of denaturant. ΔG°NU(H2O) is the difference in free energy between the folded and unfolded states at 25° C.; m is a measure of the dependence of the free energy on the denaturant concentration, and [D] is the denaturant concentration. p and q are the slopes of the pre- and post-unfolding baselines, respectively, R is the gas constant, and T is the absolute temperature. Cm, the denaturant concentration at the midpoint of the denaturation curve ([U]/[N]=1) is defined as ΔG°NU(H2O)/m.

T2 sequence (P00772 27-266): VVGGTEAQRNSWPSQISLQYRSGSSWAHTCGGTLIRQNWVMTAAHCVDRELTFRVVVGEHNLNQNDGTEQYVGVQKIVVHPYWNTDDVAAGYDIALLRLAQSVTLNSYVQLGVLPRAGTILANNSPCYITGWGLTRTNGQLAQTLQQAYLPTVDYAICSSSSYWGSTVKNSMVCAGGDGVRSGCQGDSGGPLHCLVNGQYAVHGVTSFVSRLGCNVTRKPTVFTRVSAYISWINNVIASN

binding to hCG by BLI (human cathepsin G (hCG)): does not bind to the other proteases | binding to pPE by BLI [1]: does not bind to the other proteases | binding to hNE by BLI (positive control) (hNE): association signal
B1: NbE201: anti-hNE ISVD (VHH/nanobody) from immunized lama, amino acid sequence SEQ ID NO: 4 (protein)
VHH: QVQLQESGGGLVQAGGSLRLSCVVPGRTISLYRMGWFRQAPGKEREFVAGINWSGDMTDYVDSVKGRFTISRDNAKNTVYLEMNSLKPEDTAIYYCTADPKLLPLADSSYGYWGQGTQVTVSS
Cm ([2]; CD): 5.8 M | m ([2]; CD): 7.7 kJ · mol^−1 M^−1 | ΔG°NU(H2O) ([2]; CD): 10.6 kcal/mol | Cm ([2]; F (337 nm)): 5.8 M | m ([2]; F (337 nm)): 6.7 kJ · mol^−1 M^−1 | ΔG°NU(H2O) ([2]; F (337 nm)): 9.32 kcal/mol | Cm ([2]; F (λmax)): 6.0 M | m ([2]; F (λmax)): 6.5 kJ · mol^−1 M^−1 | ΔG°NU(H2O) ([2]; F (λmax)): 9.35 kcal/mol | Cm ([2]; Mean ± SD of the three probes): 5.9 ± 0.1 M | m ([2]; Mean ± SD of the three probes): 7.0 ± 0.5 kJ · mol^−1 M^−1 | ΔG°NU(H2O) ([2]; Mean ± SD of the three probes): 9.75 ± 0.598 kcal/mol
